Measurements reported in paper PMC12038006, “Structure and mechanism of a mycobacterial isoniazid efflux pump MsRv1273c/72c with a degenerate nucleotide-binding site” (Nature Communications, 2025).

Tests used:
[1] = biological target: MsRv1272c (MSMEG_5009) from Mycobacterium smegmatis (Mycobacterium smegmatis (Msm) mc2 155) (UniProt A0R272)
[2] = biological target: MsRv1272c (MSMEG_5009) from Mycobacterium smegmatis (Mycobacterium smegmatis (Msm) mc2 155) (UniProt A0R272); assay: SEC

Substance “MsRv1273c (MSMEG_5008) from Mycobacterium smegmatis (from UniProt A0R271 1-578) (natural protein)” has a basal ATPase activity of the MsRv1273c/72c complex in peptidiscs (malachite green) (nM Pi min^–1 mg^–1) [1] of 148, a basal ATPase activity of the MsRv1273c/72c complex in proteoliposomes (malachite green) (nM Pi min^–1 mg^–1) [1] of 181 and a stoichiometry N [2] of 1.
